According to the supplement of paper PMC7877785:
± gives the uncertainty stated by the source.

Test: self-splicing fitness, log relative to wild type (ln ratio); higher = more splicing; Tetrahymena group I intron in knt gene, E. coli kanamycin selection, DiMSum; sequences stand for … in CUCUCU…GGAGGGAAAAGUUAUCAGGCAUGCACCUGGUAGCUAGUCUUUAAACCAAUAGAUUGCAUCGGUUUAAAAGGCAAGACCGUCAAAUUGCGGGAAAGGGGUCAACAGCCGUUCAGUACCAAGUCUCAGGGGAAACUUUGAGAUGGCCUUGCAAAGGGUAUGGUAAUAAGCUGACGGACAUGGUCCUAACCACGCAGCCAAGUCCUAAGUCAACAGAUCUUCUGUUGAUAUGGAUGCAGUUCACAGACUAAAUGUCGGUCGGGGAAGAUGUAUUCUUCUCAUAAGAUAUAGUCGGACCUCUCCUUAAUGGGAGCUAGCGGAUGAAGUGAUGCAACACUGGAGCCGCUGGGAACUAAUUUGUAUGCGAAAGUAUAUUGAUUAGUUUUGGAGUACUCGUGGUCG
In short: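 The eight P1ex-region nucleotides of an intron in the knt kanamycin-resistance gene on pET-22b(+) were all randomised and the library put into E. coli BL21(DE3). Six replicate transformations were grown overnight at 37°C or 30°C on LB agar with or without 25 μg/mL kanamycin, together with 100 μg/mL carbenicillin, 50 μM IPTG and 0.2% rhamnose. Colonies were pooled and amplicon-sequenced on an Illumina HiSeq 2500. Fitness from DiMSum is the error-weighted combination of wild-type-normalised replicate fold changes, kanamycin over none.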

Sequence | self-splicing fitness (ln) (30 °C) | self-splicing fitness (ln) (37 °C)
AUCGAGCAAUAUUACGCUUG | -2.41 ± 0.18 | -1.1 ± 0.3
UGUUAGCAAUAUUACGUAGU | -3.48 ± 0.33 | -2.22 ± 0.27
ACUAAGCAAUAUUACGUUGC | -3.69 ± 0.27 | -2.77 ± 0.22
CGGAAGCAAUAUUACGAACG | -3 ± 0.21 | -0.802 ± 0.24
ACCUAGCAAUAUUACGCCAU | -3.51 ± 0.27 | -1.21 ± 0.19
GUACAGCAAUAUUACGCGUU | -2.61 ± 0.15 | -1.35 ± 0.14
UUUUAGCAAUAUUACGAUCU | -0.719 ± 0.13 | -0.72 ± 0.15
UGCUAGCAAUAUUACGCGAG | -4.4 ± 0.39 | -2.11 ± 0.31
GAGCAGCAAUAUUACGACCA | -1.17 ± 0.14 | -1.02 ± 0.15
GACCAGCAAUAUUACGGCUG | -3.68 ± 0.18 | -3.41 ± 0.25
CAACAGCAAUAUUACGCACU | -2.34 ± 0.14 | -0.357 ± 0.12
UUGAAGCAAUAUUACGACAG | 0.483 ± 0.091 | 0.232 ± 0.11
AUCUAGCAAUAUUACGUCUC | -2.8 ± 0.26 | -0.391 ± 0.22
GACAAGCAAUAUUACGUGUC | -4.44 ± 0.28 | -3.22 ± 0.37
AAUUAGCAAUAUUACGACCC | – | 0.136 ± 0.36
CAUCAGCAAUAUUACGUGCC | -2.97 ± 0.16 | -2.47 ± 0.24
AAUAAGCAAUAUUACGGCGG | -0.94 ± 0.093 | -0.865 ± 0.1
GUCAAGCAAUAUUACGCAAG | -3.29 ± 0.18 | -2.48 ± 0.18
UACGAGCAAUAUUACGCUCU | -1.85 ± 0.21 | –
GAGCAGCAAUAUUACGUAGG | -2.83 ± 0.13 | -2.54 ± 0.2
CGUCAGCAAUAUUACGUUUC | -3 ± 0.14 | -3.06 ± 0.21
AUCAAGCAAUAUUACGCGCC | -1.23 ± 0.14 | -0.474 ± 0.17
UGCUAGCAAUAUUACGAGCG | -2.86 ± 0.2 | -0.792 ± 0.17
AAAGAGCAAUAUUACGUUUU | -2.46 ± 0.11 | -1.91 ± 0.12
CGAGAGCAAUAUUACGGCGA | -2.72 ± 0.3 | -1.28 ± 0.31
GCCAAGCAAUAUUACGUUGG | -3.36 ± 0.27 | -2.6 ± 0.19

Sequence | self-splicing fitness (ln) (30 °C) | self-splicing fitness (ln) (37 °C)
AUGAAGCAAUAUUACGUCAC | -2.97 ± 0.26 | -1.09 ± 0.18
GCCCAGCAAUAUUACGCAGC | -1.83 ± 0.12 | -1.38 ± 0.13
AGGUAGCAAUAUUACGAGUU | -2.033 ± 0.015 | -0.955 ± 0.033
GGCAAGCAAUAUUACGCAAA | -0.878 ± 0.092 | -1.2 ± 0.097
UCGCAGCAAUAUUACGUGUG | -2.24 ± 0.074 | -2.33 ± 0.12
GCUUAGCAAUAUUACGUAAG | -2.18 ± 0.12 | -0.181 ± 0.17
GCUUAGCAAUAUUACGGUUU | -1.4 ± 0.068 | -0.908 ± 0.074
AUGAAGCAAUAUUACGUCCG | -0.499 ± 0.062 | 0.309 ± 0.086
UACCAGCAAUAUUACGGUGG | -3.17 ± 0.11 | -1.87 ± 0.087
GACGAGCAAUAUUACGUGGA | -4 ± 0.21 | -2.92 ± 0.21
GGGGAGCAAUAUUACGCAAU | – | -1.66 ± 0.48
UGAAAGCAAUAUUACGGGGC | -3.89 ± 0.23 | -2.73 ± 0.19
CGAGAGCAAUAUUACGCGUC | -3.01 ± 0.36 | -2.64 ± 0.42
GGCUAGCAAUAUUACGCGAG | -4.46 ± 0.39 | -2.74 ± 0.28
UGCGAGCAAUAUUACGCCAG | -4.1 ± 0.42 | –
AGCGAGCAAUAUUACGAAGG | -4.58 ± 0.26 | -2.09 ± 0.15
AAUCAGCAAUAUUACGAAGG | -1.16 ± 0.071 | -0.793 ± 0.099
GCCAAGCAAUAUUACGCUGG | -4.4 ± 0.28 | -2.37 ± 0.18
UUGCAGCAAUAUUACGCUGU | -2.71 ± 0.35 | -1.23 ± 0.32
CUACAGCAAUAUUACGAGCG | -0.282 ± 0.076 | -0.442 ± 0.1
GCCAAGCAAUAUUACGACAA | -3.73 ± 0.38 | -3.04 ± 0.26
CCUGAGCAAUAUUACGAUAG | -1.55 ± 0.085 | -0.775 ± 0.089
CGCAAGCAAUAUUACGACUU | – | -2.07 ± 0.25
CAAGAGCAAUAUUACGACGU | -2.88 ± 0.23 | –
UAUUAGCAAUAUUACGUCCA | -0.691 ± 0.11 | -0.00937 ± 0.15
GCGUAGCAAUAUUACGGUAA | -1.02 ± 0.13 | -0.178 ± 0.1

Sequence | self-splicing fitness (ln) (30 °C) | self-splicing fitness (ln) (37 °C)
GCAGAGCAAUAUUACGUCGA | – | -1.58 ± 0.21
CGAAAGCAAUAUUACGUUUC | -3.81 ± 0.2 | -2.15 ± 0.16
UCAGAGCAAUAUUACGUGAC | -3.69 ± 0.28 | -1.9 ± 0.23
CUGCAGCAAUAUUACGCAGG | -2.91 ± 0.17 | -2.15 ± 0.16
AGACAGCAAUAUUACGCGAU | -2.68 ± 0.14 | -1.29 ± 0.15
UGAAAGCAAUAUUACGUGUG | -1.67 ± 0.077 | -0.52 ± 0.081
UUAGAGCAAUAUUACGACUU | -1.32 ± 0.13 | -1.77 ± 0.19
UAGUAGCAAUAUUACGUUCU | -1.88 ± 0.12 | -0.844 ± 0.098
GAGGAGCAAUAUUACGCAGA | -3.91 ± 0.34 | -2.86 ± 0.32
UCCGAGCAAUAUUACGUGAA | -3.29 ± 0.17 | -1.16 ± 0.15
UAAAAGCAAUAUUACGAUCG | 0.0746 ± 0.077 | 0.385 ± 0.1
UUCAAGCAAUAUUACGCGGG | -3.35 ± 0.28 | -1.95 ± 0.21
AAUGAGCAAUAUUACGUGUA | -3.35 ± 0.23 | -2.56 ± 0.21
CACGAGCAAUAUUACGAGAC | -2.99 ± 0.2 | -1.89 ± 0.3
CCGCAGCAAUAUUACGGUGA | -2.46 ± 0.084 | -0.784 ± 0.075
AAAAAGCAAUAUUACGUGUG | -1.57 ± 0.049 | -1.27 ± 0.069
GAUGAGCAAUAUUACGAUGA | -2.24 ± 0.2 | -2.79 ± 0.27
CGACAGCAAUAUUACGUAGA | -3.57 ± 0.13 | -2.12 ± 0.15
UGUUAGCAAUAUUACGGAUC | -2.29 ± 0.35 | -1.81 ± 0.27
CGAGAGCAAUAUUACGCUUC | -2.04 ± 0.37 | -1.61 ± 0.31
GCCCAGCAAUAUUACGCGCG | -2.16 ± 0.14 | -0.815 ± 0.13
ACUGAGCAAUAUUACGCUUA | -3.12 ± 0.38 | -1.88 ± 0.2
GAAGAGCAAUAUUACGUGUC | -4.75 ± 0.46 | -2.79 ± 0.27
CAGUAGCAAUAUUACGAAGC | – | -3.05 ± 0.32
UACAAGCAAUAUUACGGAGG | -3.94 ± 0.22 | -2.03 ± 0.16
